Laboratory results: PMC9474520, “Biochemical and structural insights of multifunctional flavin-dependent monooxygenase FlsO1-catalyzed unexpected xanthone formation” (Nature Communications, 2022)

B1: FlsO1 (Micromonospora rosaria) (protein)
chain: MNTIDAEVIIVGAGPTGLMLAGELRLNNVSTIVLDRLAEPMQQSRALGFSARTIEEFDQRGLLARFGEVGTIPFGHFGGVPLDYRVIKGGSYGARGIPQSRTEGMLAQRAVELGAELRRGQEVVSIDDDGTGVAVVVRTADGEQTLRAKYLVGADGARSTVRKAAGIDFPGTDPTMEMWLADVAGCDLRLRFSGELVPGGMVMVLPLGPVAQRVVVFEHATGLRNSTEPPTFAEVADAFERLTGEDIRGGKPLWVSWFTDSSRQAAEYRRGRILLAGDAAHIHMPIGGQGMSAGIQDAVNLGWKLAAEIHGHAPEGLLDTYHTERHPVDGRVVMNTLAQRWLYLGGEAMQPLRELLGELVRYPDVQEHLVGMVTGLDIRYDVGAGEHPLLGRRIPNQELVGEFDGSGKSTTFEQLHRGRGVLFAFGDDTAGPQAATGWTDRVDVVRATPHTADPDDPFHGLDAVLVRPDGYVAWVAPAGAGAAGLDEALSRWFGPSR
notes: (His)6-tagged, pET28a (pCSG5205), E. coli BL21(DE3); Ni-NTA; homodimer; crystals from Q108G/R109G surface mutant
B2: FlsO2 (Micromonospora rosaria) (protein)
chain: MDTDVIVVGAGPTGLMLAGELRLGGARVVLVERLAEPTGQSRGLGFTARAMETLDQRGLLPRFGELETSPRGHFGGVQFDYSVLPDAHFGARGVPQSQTEDVLEKWATETGVDIRRGWELRELTDDGSGVTIVADTPDGTRQLRAAYLVGCDGGQSTVRKLVGFEFEGTPATRGMYLADVVGCALRPRFLGEKLANGMVMAAPLAEGVDRIIVCEHGTPPTERERQVSFEEVAAAWERITGESISHGGSLWVSSFTDATRQATEYRRGRVLLAGDAAHIHLPAAGQGLSVGVQDAANLGWKLAAVVRGHAPEGLLDTYHDERHPVGARLLLNTRVQNAVFLGGEEAEPLRTLFTELISYDTVGRHLAGMVSGLEVRYDVGAGDHPLLGRRLPPRALHGAAGATTTTELLHPATGVLLDLTDDAGLRAVAAGYGDRVAVTVATSDAAEFAGVPALLVRPDGYVAWVGAEPDGLAAALRRWFGEPAPAGQ
notes: expressed from pCSG5102 (previously constructed), E. coli BL21(DE3); purified similarly to FlsO1

Substrate: CC1=CC(=O)[C@@H]2c3cc4cccc(O)c4c(O)c3C(=O)C[C@]2(O)C1
Experiment: HPLC of dehydrorabelomycin formation
Assay type: biochemical, Micromonospora rosaria
Settings: 2 mM NADPH, 50 mM phosphate pH 7.0, 30 °C

Protein	Km (0.5 μM enzyme)	Km (0.25 μM enzyme)
B1	253.4 µM	–
B2	–	143.2 µM
